In the supplement of paper PMC9876800:

Test system: peptide library, one residue held at a place counted from the S/T acceptor
Experiment: relative phosphorylation of the sub-library (ratio to the mean residue at this position); higher = residue favoured
Settings: human
In short: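 Human or orthologue kinase constructs, purified and recombinant, were incubated under kinase-specific conditions in 384-well plates with biotinylated degenerate peptide sub-libraries. Each sub-library fixed one residue at one position around a central Ser/Thr. Incubations lasted 90 min with peptides at 50 μM and 50 μM ATP spiked with γ-32P-ATP, after which spots on streptavidin membranes were phosphorimaged and quantified by densitometry. Relative sub-library phosphorylation is a ratio to the mean residue at that position.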

Chain of CDC7, construct: Full length (O00311 whole entry, looked up): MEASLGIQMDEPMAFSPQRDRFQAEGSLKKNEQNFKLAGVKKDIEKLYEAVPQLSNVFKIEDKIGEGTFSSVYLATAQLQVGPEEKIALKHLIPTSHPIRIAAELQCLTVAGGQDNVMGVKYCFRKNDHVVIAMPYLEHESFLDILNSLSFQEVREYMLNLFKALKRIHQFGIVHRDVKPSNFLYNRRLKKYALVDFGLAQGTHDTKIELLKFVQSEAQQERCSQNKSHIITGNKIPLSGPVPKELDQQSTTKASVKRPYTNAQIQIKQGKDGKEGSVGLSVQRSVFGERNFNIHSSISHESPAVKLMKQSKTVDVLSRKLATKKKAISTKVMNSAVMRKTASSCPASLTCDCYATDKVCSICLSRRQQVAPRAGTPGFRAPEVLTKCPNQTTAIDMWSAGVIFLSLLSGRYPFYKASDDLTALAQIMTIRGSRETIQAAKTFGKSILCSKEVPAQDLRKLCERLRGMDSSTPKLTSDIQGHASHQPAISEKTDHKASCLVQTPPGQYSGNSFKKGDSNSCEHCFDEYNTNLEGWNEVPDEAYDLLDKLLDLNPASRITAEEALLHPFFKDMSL
Chain of CDK1, construct: Full length (P06493 whole entry, looked up): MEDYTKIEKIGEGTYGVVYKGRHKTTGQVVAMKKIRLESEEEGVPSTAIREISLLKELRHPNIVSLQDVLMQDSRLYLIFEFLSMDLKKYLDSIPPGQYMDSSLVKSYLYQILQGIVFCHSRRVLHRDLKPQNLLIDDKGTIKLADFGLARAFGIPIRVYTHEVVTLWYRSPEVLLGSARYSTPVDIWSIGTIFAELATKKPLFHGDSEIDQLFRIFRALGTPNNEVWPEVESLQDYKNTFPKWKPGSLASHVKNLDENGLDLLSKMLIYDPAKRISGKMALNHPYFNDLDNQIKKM
Chain of ACVR2B, construct: aa161-end (Q13705 161-512, looked up): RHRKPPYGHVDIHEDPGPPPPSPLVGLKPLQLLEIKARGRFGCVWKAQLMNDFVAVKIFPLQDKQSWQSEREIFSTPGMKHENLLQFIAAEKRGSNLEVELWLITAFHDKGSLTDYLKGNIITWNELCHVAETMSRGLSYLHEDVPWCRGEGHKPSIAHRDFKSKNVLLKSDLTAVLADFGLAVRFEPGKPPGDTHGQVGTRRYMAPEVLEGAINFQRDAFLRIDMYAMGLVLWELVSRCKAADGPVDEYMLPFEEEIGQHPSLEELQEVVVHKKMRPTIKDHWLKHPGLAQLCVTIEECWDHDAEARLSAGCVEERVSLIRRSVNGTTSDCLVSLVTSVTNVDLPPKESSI

CDK1, construct: Full length (from UniProt P06493)
relative phosphorylation
Settings	at +1	at +2	at +3	at +4	at -1	at -2	at -3	at -4	at -5
A fixed	0.334	1.04	0.598	0.854	0.927	1	0.841	0.996	1.04
D fixed	0.205	0.814	0.505	0.941	1.21	1.03	1.26	1.56	1.55
E fixed	0.231	0.724	0.425	0.786	0.927	0.898	1.25	1.38	1.36
F fixed	0.187	0.68	0.396	0.78	0.639	0.853	0.825	0.825	0.882
G fixed	0.717	1.13	0.852	1.1	1.43	1.29	1.31	1.14	1.4
H fixed	0.244	1.18	0.907	1.23	0.744	0.87	1.01	0.908	0.893
I fixed	0.21	0.694	0.346	0.758	0.352	0.669	0.663	0.654	0.751
K fixed	0.331	1.86	5.37	1.83	1.65	0.597	1.01	0.973	1.11
L fixed	0.228	0.752	0.403	0.792	0.62	0.89	0.743	0.69	0.799
M fixed	0.24	0.839	0.423	0.913	0.85	1.04	0.761	0.806	0.759
N fixed	0.299	1.19	0.838	1.12	1.27	0.803	1.11	1.01	0.944
P fixed	12.4	1.04	0.999	1.08	1.61	3.11	1.84	1.49	1.16
Q fixed	0.292	1.16	0.798	1.02	1.22	0.856	0.976	0.922	0.86
R fixed	0.324	1.64	2.82	1.21	1.4	0.649	0.921	1.02	0.934
V fixed	0.295	0.656	0.413	0.695	0.483	0.687	0.705	0.586	0.718
W fixed	0.213	0.769	0.485	0.973	0.758	0.935	0.883	1.05	0.852
Y fixed	0.202	0.842	0.415	0.924	0.897	0.825	0.893	0.985	0.99
pThr fixed	0.851	1.38	1.59	0.946	0.621	1.16	1.3	1.43	1.74
pTyr fixed	0.777	0.913	1.36	1.08	0.885	1.28	1.48	1.42	1.66

CDC7, construct: Full length (from UniProt O00311)
relative phosphorylation
Settings	at +1	at +2	at +3	at +4	at -1	at -2	at -3	at -4	at -5
A fixed	0.668	1.31	0.87	0.939	1.13	1.05	0.87	0.99	1.26
D fixed	2.92	0.854	2.1	0.91	0.674	1.19	1.06	1.27	0.99
E fixed	4.74	0.689	1.03	0.832	0.819	1.13	1.15	1.04	0.856
F fixed	0.577	0.712	1.35	1.04	1.04	0.895	0.91	0.949	0.988
G fixed	0.629	1.69	1.37	1.02	1.11	0.778	1	0.929	0.934
H fixed	0.513	0.887	1.02	1.08	1	0.787	0.836	0.977	1.09
I fixed	0.549	0.834	0.864	1.01	0.485	1.07	0.849	0.82	0.93
K fixed	0.444	0.596	0.561	0.769	1.31	0.72	0.802	0.909	0.954
L fixed	0.563	1.02	0.874	0.984	0.982	1.4	0.933	0.943	0.926
M fixed	0.765	0.893	0.676	0.932	1.18	1.11	0.894	0.921	0.95
N fixed	0.691	1.13	0.897	0.878	0.884	0.715	0.888	0.955	0.979
P fixed	0.459	1.84	0.945	1.15	1.01	1.64	1.06	1.11	0.914
Q fixed	1.31	0.756	0.694	0.782	0.781	0.749	0.848	0.866	0.77
R fixed	0.472	0.816	0.506	0.723	1.11	1.06	1.65	0.907	1.06
V fixed	0.612	0.737	0.761	0.894	0.671	0.988	0.856	0.935	0.943
W fixed	0.567	1.44	1.23	1.48	1.59	0.854	1.33	1.36	1.28
Y fixed	0.523	0.796	1.25	1.58	1.23	0.884	1.06	1.12	1.18
pThr fixed	2.38	0.801	1.41	1.34	0.583	1.12	1.46	1.13	0.831
pTyr fixed	0.631	0.537	0.792	1.15	0.684	0.717	1.06	0.937	0.844

ACVR2B, construct: aa161-end (from UniProt Q13705)
relative phosphorylation
Settings	at +1	at +2	at +3	at +4	at -1	at -2	at -3	at -4	at -5
A fixed	0.595	1.11	0.975	1.11	0.803	0.672	0.922	0.979	0.962
D fixed	2.06	1.33	0.992	1.24	1.46	3.9	1.99	1.75	1.81
E fixed	3.92	1.1	1.26	1.18	1.31	5.09	2	1.49	1.53
F fixed	0.786	0.848	0.958	0.819	1.01	0.514	0.898	1.06	1.03
G fixed	0.531	1.27	1.09	0.987	0.57	0.472	0.941	1.07	0.878
H fixed	0.823	0.877	0.867	0.955	1.01	0.664	0.928	1.04	0.88
I fixed	0.875	0.985	1	0.924	0.746	0.396	0.77	0.78	0.752
K fixed	0.372	0.75	0.617	0.767	0.554	0.403	0.722	0.644	0.734
L fixed	0.752	0.69	1.17	0.901	1.38	0.532	0.725	0.88	0.8
M fixed	0.917	0.868	1.03	0.887	1.37	0.458	0.802	0.853	0.878
N fixed	0.742	0.933	0.887	0.905	0.948	0.876	0.987	0.971	1.01
P fixed	0.316	1.41	1.18	1.22	0.595	0.335	0.784	0.913	0.905
Q fixed	1.02	0.859	0.904	0.994	0.81	0.659	0.947	0.838	0.847
R fixed	0.374	0.826	0.769	0.827	0.531	0.45	0.621	0.626	0.802
V fixed	1.06	1.13	0.98	0.941	1.04	0.534	0.892	0.883	0.924
W fixed	0.969	0.954	1.13	1.33	1.56	0.512	1.11	1.2	1.23
Y fixed	0.886	1.07	1.19	0.998	1.31	0.527	0.963	1.03	1.03
pThr fixed	4.33	1.49	1.08	1.29	1.86	1.18	1.78	1.34	1.29
pTyr fixed	2.48	1.11	1.19	1.08	1.85	0.886	2.34	1.45	1.26

MAP3K20, construct: Full length (from UniProt Q9NYL2)
relative phosphorylation
Settings	at +1	at +2	at +3	at +4	at -1	at -2	at -3	at -4	at -5
A fixed	0.455	0.721	0.832	0.953	0.78	0.903	1.01	0.913	1.12
D fixed	0.247	0.439	0.477	0.582	1.46	1.01	0.926	1.29	1
E fixed	0.359	0.359	0.543	0.629	0.797	0.946	1.13	1.14	0.884
F fixed	1.58	0.694	1.11	0.722	0.853	1.03	0.835	0.894	0.925
G fixed	0.282	0.564	0.99	1.06	1.22	1.45	1.18	1.16	1.09
H fixed	1.07	2.45	1.13	1.14	1.79	1.61	1.2	1.13	1.1
I fixed	2.51	0.692	1.08	0.729	0.394	0.631	0.772	0.72	0.733
K fixed	0.486	1.57	1.45	2.05	1.01	0.509	0.819	1.08	1.39
L fixed	1.3	0.646	1.07	0.672	0.679	0.858	0.952	0.736	0.812
M fixed	0.981	0.758	0.972	0.818	1.13	0.812	0.915	0.849	0.822
N fixed	0.473	0.996	0.822	0.946	1.63	1.12	1.28	1.19	1.11
P fixed	0.261	0.41	0.771	1.16	0.632	0.693	1.23	1.07	1.03
Q fixed	0.629	0.894	0.896	1.04	1.08	0.977	0.892	0.932	0.914
R fixed	0.557	2.15	1.42	1.72	1.12	0.662	1.01	1.11	1.14
V fixed	2.5	0.779	0.984	0.69	0.461	0.647	0.841	0.76	0.772
W fixed	1.27	1.08	1.25	1.19	0.778	2.07	1.11	1.07	1.14
Y fixed	2.03	1.8	1.21	0.895	1.18	1.07	0.909	0.959	1.01
pThr fixed	0.837	0.564	0.781	0.663	0.615	1.09	1.34	1.2	1.22
pTyr fixed	0.662	0.528	0.72	0.694	0.997	0.935	1.06	0.797	1.04
